Results reported in patent US20130031647A1 (PIERRE FABRE MEDICAMENT, published 2013).
Numbering of substitutions follows the chain as printed. In names and notes the source's numbering stands.

Assays:
[1] = target: constitutively active mutant (CAM) Asn^119Ser CXCR4 receptor (human) (UniProt P61073); assay: cell-based or functional assay
human CXCR4 receptor [2] = target: T1, human CXCR4 receptor (human, UniProt P61073 1-352); assay: cell-based or functional assay
human CXCR4 receptor [3] = target: T1, human CXCR4 receptor; assay: competition of [^125I]SDF-1 (1 nM) binding, Mab at 100 nM, SPA, CHO-K1 membranes expressing human CXCR4
Description: (§1) CHO-K1 cells, stably and constitutively expressing human CXCR4 receptor were obtained upon transfection of naïve CHO-K1 cells (ATCC CCL-61) with a mammalian expression vector carrying the whole coding sequence of human CXCR4 receptor (RefSeq NM_{—}003467). Cells were propagated in complete culture medium [DMEM-Ham's F12 supplemented with 5% fetal calf serum (FCS) and 500 μg/ml of geneticin]. Radioligand binding experiments were conducted on cell membranes obtained upon mechanical scrapping of CHO/CXCR4 cells in lysis buffer [Hepes 20 mM, pH 7.4, NaCl 150 mM] followed by centrifugation (10000 g, 15 min). […] Upon centrifugation [1000 g for 10 min.] radioactive counts were measured in a scintillation counter (TopCount, Perkin Elmer).

human CXCR4 receptor [4] = target: T1, human CXCR4 receptor; assay: competition of [^125I]SDF-1 (1 nM) binding, SPA, CHO-K1 membranes expressing human CXCR4
Description: as §1

human CXCR4 receptor [5] = target: T1, human CXCR4 receptor; assay: dose-dependent inhibition of [^125I]SDF-1 binding, SPA, CHO-K1 membranes expressing human CXCR4
Description: as §1

human CXCR4 receptor [6] = target: T1, human CXCR4 receptor; assay: flow cytometry competition on CXCR4 transfected NIH3T3 cells; competitor: biotinylated murine 515H7
From the text: In a first series of experiments, we constructed and analysed the anti-CXCR4 binding activities of the three first humanized variants. […] Therefore, VH1 was combined with the three different variants of VL (FIG. 23D-F).

CXCR2:YFP fusion protein = target: T2, CXCR2:YFP fusion protein (UniProt P25025 1-360); assay: BRET in transiently transfected HEK293 cells
T2 construct: whole, on cells
T2 sequence (looked up): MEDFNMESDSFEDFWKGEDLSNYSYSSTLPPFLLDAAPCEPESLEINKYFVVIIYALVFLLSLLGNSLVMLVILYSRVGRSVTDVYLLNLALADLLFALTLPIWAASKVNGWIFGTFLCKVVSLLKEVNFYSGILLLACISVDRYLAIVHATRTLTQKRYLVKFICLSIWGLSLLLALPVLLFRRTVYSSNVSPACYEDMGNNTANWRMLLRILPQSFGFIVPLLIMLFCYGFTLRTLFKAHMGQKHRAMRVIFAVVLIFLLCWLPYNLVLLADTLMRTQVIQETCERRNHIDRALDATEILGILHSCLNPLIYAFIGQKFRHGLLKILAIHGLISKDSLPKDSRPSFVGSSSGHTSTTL
Description: The day after, cells were distributed in poly-lysine pre-coated white 96 MW plates in complete culture medium [DMEM supplemented with 10% FBS]. Cells were first cultivated at 37° C. with CO₂ 5% in order to allow cell attachment to the plate. Cells were then starved with 200 μl DMEM/well overnight. Immediately prior to the BRET experiment, DMEM was removed and cells were quickly washed with PBS. […] After incubation for further 10 minutes at 37° C., light-emission acquisition at 485 nm and 530 nm was initiated using the Mithras LB940 multilabel reader (Berthold) (1 s/wavelength/well repeated 15 times at room temperature).
Calculation of BRET ratio was performed as previously described (Angers et al., 2000): [(emission_{530 nm})−(emission_{485 nm})×Cf]/(emission_{485 nm}), where Cf=(emission_{530 nm}) (emission_{485 nm}) for cells expressing the Rluc fusion protein alone under the same experimental conditions. […] For sake of readability, results are expressed in milliBRET units (mBU); mBU corresponds to the BRET ratio multiplied by 1000.

Q: Which inhibition of SDF-1-stimulated [^35S]GTPγS binding [1] does the source give for T140 (peptide) here?
A: -159%

Q: And the inhibition of basal [^35S]GTPγS binding [1]?
A: -17%

B1: murine monoclonal antibody 515H7 (antibody, V domains shown)
VH: EVNLVESGGGLVQPGGSLRLSCATSGFTFTDNYMSWVRQPPGKALEWLGFIRNKANGYTTDYSASVRGRFTISRDNSQSILYLQMNALRAEDSATYYCARDVGSNYFDYWGQGTTLTVSS
VL: DIVMSQSPSSLAVSAGEKVTMSCKSSQSLFNSRTRKNYLAWYQQKPGQSPKLLIYWASARDSGVPARFTGSGSETYFTLTISRVQAEDLAVYYCMQSFNLRTFGQGTKVEIK
Q: Which results are given for B1?
A: IC50 in [^35S]GTPγS binding, Hela cells (human CXCR4 receptor [2]): 0.2 nM; IC50 in [^35S]GTPγS binding, NIH3T3/CXCR4 cells (human CXCR4 receptor [2]): 1.9 nM; decrease in SDF-1-induced U937 cells migration (human CXCR4 receptor [2]): > 80%; inhibition of SDF-1-induced β-arrestin recruitment (BRET) (human CXCR4 receptor [2]): ~95%

B2: anti-CXCR4 chimeric Mab c515H7 (antibody, human IgG1, kappa, V domains shown)
VH: B1 VH
VL: DIVMSQSPSSLAVSAGEKVTMSCKSSQSLFNSRTRKNYLAWYQQKPGQSPKLLIYWASARDSGVPARFTGSGSETYFTLTISRVQAEDLAVYYCMQSFNLRTFGQGTKVEIKR
notes: also called chimeric 515H7; chimeric antibody
Q: What does the source list for B2?
A: % inhibition of [^125I]SDF-1 (human CXCR4 receptor [3]): 55%; IC50 in [^35S]GTPγS binding, Hela cells (human CXCR4 receptor [2]): 0.6 nM; IC50 in [^35S]GTPγS binding, NIH3T3/CXCR4 cells (human CXCR4 receptor [2]): 1.5 nM; decrease in SDF-1-induced U937 cells migration (human CXCR4 receptor [2]): > 80%; inhibition of SDF-1-induced β-arrestin recruitment (BRET) (human CXCR4 receptor [2]): ~93%

B3: humanized antibody Hz515H7 VH1 D76N VL2.2 (antibody, human IgG1, kappa, V domains shown)
VH: EVQLVESGGGLVQPGRSLRLSCTASGFTFTDNYMSWVRQAPGKGLEWVGFIRNKANGYTTEYAASVKGRFTISRDNSKSIAYLQMNSLKTEDTAVYYCARDVGSNYFDYWGQGTLVTVSS
VL: B2 VL with S5T, S9D, A15L, K18R, V19A, S49P, A66D, L89V
notes: human IgG1/kappa format; also called hz515H7VL2.2
Q: What does the source list for B3?
A: % inhibition of [^125I]SDF-1 (human CXCR4 receptor [4]): 61%; % of inhibition of [^35S]GTPγS binding stimulated by SDF-1 (100 nM) (human CXCR4 receptor [2]): 66%; IC50 in [^35S]GTPγS binding, NIH3T3/CXCR4 cells (human CXCR4 receptor [2]): 5.19 nM; inhibition of SDF-1-induced β-arrestin recruitment (BRET) (human CXCR4 receptor [2]): ~82%; percentage of inhibition of SDF-1-induced BRET increase, CXCR4 homo-dimers (human CXCR4 receptor [2]): ~33%; IC50 (human CXCR4 receptor [5]): 5.91 nM

B4: humanized antibody Hz515H7 VH1 D76N VL2 (antibody, human IgG1, kappa, V domains shown)
VH: B3 VH
VL: B2 VL with S5T, A15L, K18R, V19A
notes: human IgG1/kappa format; Biotinylated in the IHC study; also called hz515H7VL2; hz515H7 VH D76N VL2
Q: B4 was tested. Which “% inhibition of [^125I]SDF-1” value (human CXCR4 receptor [4]) did it give?
A: 77%

Q: And the “% of inhibition of [^35S]GTPγS binding stimulated by SDF-1 (100 nM)” value (human CXCR4 receptor [2])?
A: 86%

Q: And the “IC50, SDF-1 induced U937 cell migration” value (human CXCR4 receptor [2])?
A: 4.53 ng/mL

Q: What about the “IC50 in [^35S]GTPγS binding, NIH3T3/CXCR4 cells” value (human CXCR4 receptor [2]) of the same molecule?
A: 3.86 nM

Q: What about the “inhibition of SDF-1-induced β-arrestin recruitment (BRET)” value (human CXCR4 receptor [2]) of the same molecule?
A: ~94%

Q: What about the “percentage of inhibition of SDF-1-induced BRET increase, CXCR4 homo-dimers” value (human CXCR4 receptor [2]) of the same molecule?
A: ~88%

Q: What about the IC50 (human CXCR4 receptor [5]) of the same molecule?
A: 1.44 nM

B5: humanized antibody Hz515H7 VH1 D76N VL2.1 (antibody, human IgG1, kappa, V domains shown)
VH: B3 VH
VL: B2 VL with S5T, S9D, A15L, K18R, V19A, S49P, A66D, T69S
notes: human IgG1/kappa format; also called hz515H7VL2.1
Q: How did the “% inhibition of [^125I]SDF-1” value (human CXCR4 receptor [4]) turn out when B5 was run?
A: 68%

Q: What about the “% of inhibition of [^35S]GTPγS binding stimulated by SDF-1 (100 nM)” value (human CXCR4 receptor [2]) of the same molecule?
A: 69%

Q: What about the “IC50 in [^35S]GTPγS binding, NIH3T3/CXCR4 cells” value (human CXCR4 receptor [2]) of the same molecule?
A: 4.05 nM

Q: What about the “inhibition of SDF-1-induced β-arrestin recruitment (BRET)” value (human CXCR4 receptor [2]) of the same molecule?
A: ~81%

Q: What about the “percentage of inhibition of SDF-1-induced BRET increase, CXCR4 homo-dimers” value (human CXCR4 receptor [2]) of the same molecule?
A: ~65%

Q: What about the IC50 (human CXCR4 receptor [5]) of the same molecule?
A: 6.69 nM

B6: humanized antibody Hz515H7 VH1 D76N VL2.3 (antibody, human IgG1, kappa, V domains shown)
VH: B3 VH
VL: B2 VL with S5T, S9D, A15L, K18R, V19A, S49P, A66D, R83S, V84L
notes: human IgG1/kappa format; also called hz515H7VL2.3
Q: Which results are given for B6?
A: % inhibition of [^125I]SDF-1 (human CXCR4 receptor [4]): 49%; % of inhibition of [^35S]GTPγS binding stimulated by SDF-1 (100 nM) (human CXCR4 receptor [2]): 58%; IC50 in [^35S]GTPγS binding, NIH3T3/CXCR4 cells (human CXCR4 receptor [2]): 8.5 nM; inhibition of SDF-1-induced β-arrestin recruitment (BRET) (human CXCR4 receptor [2]): ~71%; percentage of inhibition of SDF-1-induced BRET increase, CXCR4 homo-dimers (human CXCR4 receptor [2]): ~21%

B7: humanized antibody Hz515H7 VH1 VL1 (antibody, human IgG1, kappa, V domains shown)
VH: B3 VH with N76D
VL: DIVMTQSPDSLAVSLGERATINCKSSQSLFNSRTRKNYLAWYQQKPGQPPKLLIYWASTRESGVPDRFSGSGSGTDFTLTISSLQAEDVAVYYCMQSFNLRTFGQGTKVEIKR
notes: human IgG1/kappa format; also called humanized variant 515H7 VH variant 1 VL variant 1
Q: Does B7 bind (human CXCR4 receptor [6])?
A: binds

B8: hz515H7 VH1 VL2 (antibody, human IgG1, kappa, V domains shown)
VH: B3 VH with N76D
VL: B2 VL with S5T, A15L, K18R, V19A
notes: also called VH1 combined with variant 2 of VL
Q: Does B8 bind (human CXCR4 receptor [6])?
A: binds

B9: humanized antibody Hz515H7 VH1/c515H7 VL (antibody, human IgG1, V domains shown)
VH: B3 VH with N76D
VL: B2 VL
notes: also called VH1 combined with the chimeric VL (cVL); VH1 combined with the murine VL
Q: Does B9 bind (human CXCR4 receptor [6])?
A: binds

B10: CXCR4/Rluc fusion protein (receptor, UniProt P61073 1-352, looked up)
chain: MEGISIYTSDNYTEEMGSGDYDSMKEPCFREENANFNKIFLPTIYSIIFLTGIVGNGLVILVMGYQKKLRSMTDKYRLHLSVADLLFVITLPFWAVDAVANWYFGNFLCKAVHVIYTVNLYSSVLILAFISLDRYLAIVHATNSQRPRKLLAEKVVYVGVWIPALLLTIPDFIFANVSEADDRYICDRFYPNDLWVVVFQFQHIMVGLILPGIVILSCYCIIISKLSHSKGHQKRKALKTTVILILAFFACWLPYYIGISIDSFILLEIIKQGCEFENTVHKWISITEALAFFHCCLNPILYAFLGAKFKTSAQHALTSVSRGSSLKILSKGKRGGHSSVSTESESSSFHSS
notes: whole, on cells; Transiently expressed in HEK293 cells for BRET; also called CXCR4 tagged with luciferase; not shown: Renilla reniformis luciferase (Rluc)
Q: Does B10 bind (CXCR2:YFP fusion protein)?
A: binds
